Reference: article PMC3260234

Experiments:
[1] = target: T1, OxyS (Mycobacterium tuberculosis) (UniProt L7N677); test: competition; settings: 20 mM Tris-HCl pH 7.5, 100 mM NaCl, 2 mM EDTA, room temperature 20 min
T1 sequence: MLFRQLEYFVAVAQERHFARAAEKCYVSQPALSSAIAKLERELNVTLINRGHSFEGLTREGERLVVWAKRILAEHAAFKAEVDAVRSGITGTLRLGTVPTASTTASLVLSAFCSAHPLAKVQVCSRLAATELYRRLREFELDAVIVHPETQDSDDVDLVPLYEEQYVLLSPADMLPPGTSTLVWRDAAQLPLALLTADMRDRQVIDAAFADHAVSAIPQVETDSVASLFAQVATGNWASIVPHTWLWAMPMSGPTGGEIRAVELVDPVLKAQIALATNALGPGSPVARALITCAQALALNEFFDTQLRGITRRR

[2] = target: T1, OxyS (Mycobacterium tuberculosis); test: EMSA; settings: 20 mM Tris-HCl pH 7.5, 100 mM NaCl, 2 mM EDTA, room temperature 20 min
OxyS = target: T2, OxyS (Mycobacterium tuberculosis, UniProt L7N677 1-314); test: EMSA; 0-300 nM OxyS; 20 mM Tris-HCl pH 7.5, 100 mM NaCl, 2 mM EDTA, room temperature 20 min; […]; settings: protein: recombinant; tags: 6xHis (pET28a); chain copies: 4; label: 5'-FITC on forward strand; blunt
T2 sequence: T1 sequence

In the case of “TCGACATCGGCGATAACCCCGCAAGACCGGCAGACGATGTGATGGTGGTTGTCGCCGACCCTGGACTCGTAGCGCGCGACGGAGCCCGAGGGTTGGATCTTTCGCACCAAGCCCGCGGCGGTCAGGGCATGCAGCACGTCGTACACGGCTTGCCGGGATACGTCGGGCAGCGCAAAACGC (double strand) [katGp1]”, the binding [1] is reported as “no binding” and the binding [2] is reported as “no binding”.

In the case of “CCGATGTCGACTGTGCTGTTGGCGAGGCACCCTGTCTGACGGCCTCGGACCATAACGGCTTCCTGTTGGACGAGGCGGAGGTCATCTACTGGGGTCTATGTCCTGATTGTTCGATATCCGACACTTCGCGATCACATCCGTGATCACAGCCCGATAACACCAACTCCTGGAAGGAATGCT (double strand) [katGp2]”, the binding [1] is reported as “binds” and the binding [2] is reported as “binds”.

B1: OxyS box1mut (dsDNA)
DNA 1: TGTCCCACGGCCTCGCCCCAT
DNA 2: ATGGGGCGAGGCCGTGGGACA
B1: no binding (OxyS).

B2: OxyS box1 (dsDNA)
DNA 1: TGTCTGACGGCCTCGGACCAT
DNA 2: ATGGTCCGAGGCCGTCAGACA
B2: binds (OxyS).
